According to patent US20190062443A1 (GALAXY BIOTECH, published 2019):

Target: DR5-KF fusion protein (human, UniProt O14763 54-183; P01834 1-107, limits assumed)
Experiment: sandwich ELISA for simultaneous binding: anti-DR4 mAb coat, DR4-hFc 0.5 µg/ml, test mAb, DR5-KF 0.5 µg/ml, HRP-anti-Flag M2
Procedure: Each step of each ELISA assay described in this patent application was performed by room temperature incubation with the appropriate reagent for 1 hour, except the initial plate coating step was done overnight at 4° C. followed by blocking with 2% BSA for 1 hr. Between each step, plates were washed 3 times in PBS containing 0.05% Tween 20. Data points were generally in duplicate or triplicate; there was generally little variability between replicate data points.
Bound DR5-KF was detected with HRP-anti-Flag M2 (Sigma) and substrate.

Sequence of DR5-KF fusion protein (O14763 other isoform, or with tags, fused parts or gaps limits assumed): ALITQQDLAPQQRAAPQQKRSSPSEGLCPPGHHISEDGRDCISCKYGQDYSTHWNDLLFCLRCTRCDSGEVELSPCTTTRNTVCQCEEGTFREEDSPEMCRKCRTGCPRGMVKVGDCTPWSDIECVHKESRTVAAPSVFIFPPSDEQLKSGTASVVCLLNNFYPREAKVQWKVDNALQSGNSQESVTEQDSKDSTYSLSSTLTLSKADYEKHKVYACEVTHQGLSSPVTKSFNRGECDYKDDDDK

B1: B-4H6/3H3-hFc** (bispecific antibody, human IgG1, kappa)
heavy: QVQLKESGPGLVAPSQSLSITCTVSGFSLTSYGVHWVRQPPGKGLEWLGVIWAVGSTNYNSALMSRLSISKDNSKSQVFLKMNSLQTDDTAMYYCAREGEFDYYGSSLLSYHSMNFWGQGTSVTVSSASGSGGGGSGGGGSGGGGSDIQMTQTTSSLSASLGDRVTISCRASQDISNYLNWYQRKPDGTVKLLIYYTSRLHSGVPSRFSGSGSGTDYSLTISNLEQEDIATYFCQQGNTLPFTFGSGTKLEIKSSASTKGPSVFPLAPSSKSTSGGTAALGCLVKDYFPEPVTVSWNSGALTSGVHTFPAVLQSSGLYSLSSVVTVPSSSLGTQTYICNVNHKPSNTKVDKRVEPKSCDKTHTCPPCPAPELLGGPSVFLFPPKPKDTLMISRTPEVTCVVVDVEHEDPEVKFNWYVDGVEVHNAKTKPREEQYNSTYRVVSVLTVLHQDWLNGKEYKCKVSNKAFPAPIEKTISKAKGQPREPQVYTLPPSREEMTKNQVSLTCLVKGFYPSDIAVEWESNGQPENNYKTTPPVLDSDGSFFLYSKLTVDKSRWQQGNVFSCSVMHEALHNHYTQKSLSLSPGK
light: EVQLQQSGPELVKPGASVKMSCKASGYTFTSYVMHWVKQKPGQGLEWIGYIIPYNDGTKYNEKFKGKATLTSDKSSSTAYMELSRLTSEDSAVYYCARGGINYDYLYYFDYWGQGTTLTVSSASGSGGGGSGGGGSGGGGSDVVMTQIPLSLPVSLGDQASISCRSSQSLVHSNGNTYLHWYLQKPGQSPKLLIYKVSNRFSGVPDRFSGSGSGTDFTLKISRVEAEDLGVYFCSQSTHVPHTFGGGTKLEIKRTVAAPSVFIFPPSDEQLKSGTASVVCLLNNFYPREAKVQWKVDNALQSGNSQESVTEQDSKDSTYSLSSTLTLSKADYEKHKVYACEVTHQGLSSPVTKSFNRGEC
notes: Bs(scFv)4-IgG format; also called bispecific B-4H6/3H3-hFc** mAb
binding result: binds
